Measured values published in US20240026407A1, “MODIFICATION OF SAPONINS” (GLAXOSMITHKLINE BIOLOGICALS SA, priority 2020, published 2024).

Key:
Type in all cases: biochemical, Quillaja saponaria
[1] = Experiment 4-1: screening of glucosidases for deglycosylation with purified QS-18 (0.04 mg/ml) at pH 7.5 and room temperature; settings: pH 7.5, room temperature, 20 h, clarified E. coli lysate, QS-18 2150 to QS-21 1988 by LCMS/MS
Outline: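 Candidate glucosidases expressed in E. coli BL21(DE3) (pET24b+, autoinduction, 20 °C for 20 h); clarified lysates in 100 mM potassium phosphate pH 7.5 incubated with QS-18 (0.04 mg/ml final) 20 h at room temperature. Quenched with MeCN, analysed by LC-MS/MS for % conversion; hits >3 S.D. above negative control.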

[2] = Experiment 4-2: screening of glucosidases for deglycosylation with purified QS-18 (1 mg/ml) at pH 6 and 30 deg C; settings: pH 6, 30 degC, 18 hrs, clarified lysate, LCMS/MS
Outline: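 Clarified lysates of glucosidase-expressing cells in 100 mM potassium phosphate pH 6 were incubated 18 h at 30 °C with QS-18 at 1 mg/ml final. Reactions quenched with MeCN; deglycosylation activity determined by LC-MS/MS.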

[3] = Experiment 4-3: screening of glucosidases for deglycosylation with QS-18 in crude bark extract (1 in 2000 dilution) at pH 7 and 30 deg C; settings: CBE 1 in 2000 dilution, pH 7, 30 degC, 1 h; % conversion of QS-18 by LCMS/MS
[4] = Experiment 4-4: screening of glucosidases for deglycosylation of QS-18 in crude bark extract (1 in 20 dilution) to QS-21; settings: CBE 1 in 20 dilution, pH 6, 25 degC, 18 hours; % conversion of Middle Peak by UV HPLC
Outline: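 Clarified glucosidase lysates were incubated with pH 6 crude bark extract (1 in 20) in potassium phosphate buffer pH 6 for 18 h at 25 °C with shaking, then quenched with MeCN. UV HPLC with MS/MS-supported peak identity; activity is % conversion of the extract's Middle Peak (QS-18 family) toward the QS-21 peak.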

Molecule	Expt 4-1 % conv [1]	Expt 4-2 % conv [2]	Expt 4-3 % conv [3]	Expt 4-4 % conv [4]
101 (protein, listed as Meira miltonrushii) MSAPIDPQALLAQLTLEEKIQLTAGADLWRTVAIERLKIPYIKLTDGPIGARGGGDFHDSTPSTLFPSPSCLGSTWDTKLAYEMGKQIALDGIEKQCHVILGPTINGQRDPRAGRFFESYSEDPTLMGFLASHWVQGVQSCGVGATMKHFVANEAEYDRRNNSSDVSIEALREVYLEPFRIIMADMQRKASAHDDPFKFQPACVMTAYNRVNGVSSSENDAMITDILRKEWGFDGLVMSDWFAMHANAFNATDLEMPGPTIFRTIEKTIDTIKKGDEEGKKMAKDLDRCVLKVLELVKKVHKLGYQKSVADEVEKSVPIEQVGPAIRKIGAEGAVLLKNDNDILPIIPKKDLKILCVGAPWIEAVQSGGGSANLTPQKVMQPLSTFKDALKNEKGGQDVTVNHHNGIGIHNFVKPLEQSIKLDFLTGRQPGKGEVVASTTGQKATLSTMLPKPKEVPWNDYWVRGSLDLEPVKKDCQLRFGLLGLGTITAYLTIDGDKSKQSIWNFDGETDLFESIVNPLRNWQENVITVKAGQKIQIEAHFVPRLVGKEHGDAKYGGFQIGMEEVDDEDALIAEAVQQAKEADLTVIMTAVGKDWESEGFDRPTIFLPRRQDDLVNQVTKACPGKTVILNLTGSVVEMPWRNDATGIVQCWYGGQEGAVSLSDILLGRGDAPASGRLAHVWPARIEDHPSGVDEAYFPGTHLPNDKEGPHTEYVEGRLVGYKYYNKNKNANQPAFHFGEGLGGYTTFATEGPVVKGSTKINKSSLPLSLTVKSTNKGKRSGKEVAQIYLRPHVPLSDAKDEPIQRLAGFAILRPAPGQSEEAEIQLYQETFSHWDEKSRSWQVKQGDYDLVLARSARYGEELGKATITIDQSWSWTGTGVN	28.2%	1.0%	1.8%	<3%
247 (protein, listed as Arthrobotrys oligospora) MDATTLKEIEETLAQLTLEEKISLLAGKDFWRTVPLPEKQIPSIKVSDGPSGARGDTFSGGQKAAFFPSGILMGATFNPELAYETGELLSEEVRAKSASVLLAPTACCHRSPLGGRNFESYSEDPLLSGKMASGYIRGVQSRGIAATMKHFVANEQETWRLYVDETIDETTLREIYLKPFEIAMREGQPWAIMTAYNIINGVHCDSHPLTLKQVLRGEWNYEGLVMSDWFGCNSMVESLLAGLDLEMPGPARKRPIKEFVEAAEKDESVRKAIDDSARRILTLIAKVGKWKDMTPEAPEYSRNDPETGKLIRRAGGEGTVLLKNEGKTLPLQPGSLKKVAFIGPNAKATVAGGGGSANLEPNYLTQPYETFVTAIKEINGDIEVPWVQGCIIDRWVPNIDVEGGFCRVGGPDSEAGLFLEWFRGYEATGEPVATTVFKTSNAFLWDSRPTSISPSEEFSVRFSGQISVPEDGKYNISLSTITASKLYLNGELLIDNWDFKERGNLMMNVGSEEVVKTIELKKGEWYPILVHNSSIWPKDSPRDPPMEEIGALGIRLGVAPVYDNAVLIAEAADAVKDADAVVIVVGLNNEWESESYDRSDTKLPNNQDDLIEEIAKVNQNVIVVNQSGAPVDMPWAENSNVKAIVQAWYAGQEAGHVIADVLLGKQNPSGKLPLTFPIKVQDNPSYLYFPGRDQKVEYTEKLMVGYRYYDTENVQTRFPFGYGLSYSTFSIGEPSLSTAELTEGQTFTANVDVSNTSNVAGAEVVQLYVKRPASTSSIKRPVKELKGFKKVHLGTGETATANITVDDKSLGIWSTEAGKWVVEAGDYEVLIGTSSVQDELKPAGKITVKAAWSWI	18.0%	2.0%	2.7%	<3%
207 (protein, listed as Bifidobacterium dentium) MSESTYPEVNDLTLEEKASLTSGGDAWHLQGVEAKGIPGYMITDGPHGLRKSLASSTGETDLNDSVPATCFPPAAGLSSSWNPELIHQVGEAMAEECIQEKVAVILGPGVNIKRNPLGGRCFEYWSEDPYLAGHEAIGIVAGVQSKGIGTSLKHFAANNQETDRLRVSANISQRALREIYFPAFEHIVKEAQPWTIMCSYNRINGVHSAQNHWLLTDVLRDEWGFEGIVMSDWGADHDRVASLNAGLNLEMPPSYTDDQIVYAARDGRIQPEQLDRMAQGMIDLVNKTRAAMSVEGYRFDVDAHDEVAHQAAVESMVLLKNDDAILPVASDAKVAVIGEFARTPRYQGGGSSHITPTKMTSFLDTLAARGVDAKFAPGFTLDLEPADAAMAADAVEVAKGADVVLMFLGLPEAAESEGFDRETLDIPAKQVELLEAVAAENKNIVVVLSNGSVVSVAPWADNAKGILESWLLGQAGGPALADVIFGNVSPSGKLAQTVPMDINDDPSMINWPGEEGHVDYGEGVFVGYRYYDTYDKAVDYPFGYGLSYATFEVSDVKVAKTGANTASVSAVVKNTSDVDAAETVQVYVAPGKSAVARPIHELKGFRKVFLKAGESAEVSFDLDERAFAYWSEKFDDWHVESGEYAIEVGTSSRDIAGTGVVELDGDGKAEPLTEWSTFGEWSDDPVGSKIVASVYAEGEAGNLPKMPDNDMMRMFLRSMPINSMPMLMSEGGKKITAFMLDEYAKVTE	27.4%	4.4%	0.2%	<3%
5 (protein, listed as Actinobacteria bacterium) MSELVENLILRLTLEEKATLTSGTDMWNAHGIDRLGIPGLKVSDGPVGVRGERWVGTTSACTPCGTALGATWNMELIEQVGVVLGEEAKSKSVDIVLAPTVNLHRNPLAGRNFECFSEDPFLTGLAATAIINGIQSAGVGACVKHFVANDSEYQRHTISSQVSERVLRELYLLPFEMVIRDTDVVAVMSGYNRLNGTYCAEHDWLLNQILKQEWGFDGLVMSDWWGTMSSASAAGGLDLEMPGPAKYLGPQLAQMVADGTLDATALDEMARRILHVSERLGLLAHSSPATPSRAAERSEDLPTHQAILRSAAEQAVVLLTNRLIEGQTVLPLDVSSLRHVAVIGPSADTAAVLGGGSAAVNPHYAVSILQGLQEALPSHVKVTHEIGVHASHSAPPIDSRCLRSAVQPDKPGLDVEYFANREFAGTPACVEHAAQPRLVWMGSEAASGVATNNLSVRVSGTFIARSTGTHTFALVTGGTGGRVLLDGESILDNYTGQESGTAFFGLGSSEILAEVYLEQGEERGIIGEFTGYEGMDVAAFLIGHREPLAADGIERAAKAAAEAEVAIVVVGLDQDSETEGEDRKTISLPGEQDALLRAVIAANPRTVVLVNAGSVVDLAATEGAAAIAQTWYLGQETGNAVAAVLTGSVDPSGRLPTTFGKKVQDWSSHLNYPGEFGEVLYGEELFMGYRGFDQQQIEPAFCFGHGLSYTSFDWSGATLSTSSLSQTELLDGAQFSLSAEVTNTGDTSGYEVLQCYVQRDQSQSGRPEQELCGFVKVHLSPGQTATVNIPLNFRSCAVWDQPSRSWLVHPGEIKFRLSSSSRDTRSTAAFQVTT	70.8%	16.6%	1.4%	<3%
169 (protein, listed as Bifiguratus adelaidae) MASSRVTELLANLTLEEKVYLLSGSDNWRTFPVPRLGIPAVKVTDGPIGARGDSFNTGQNAACFPAPIAMASTWDTDLLLKVGSALGEEAKSKAAQVLLAPTINMHRSPLNGRNFECYSEDPFLTGKMATAFVSGLQSQGVAAAVKHFACNDSEFERDSISSEITERPFREIYLRPFEMVVRDADPWCIMTSYNKINGVFASENPKLLKEILRNEWNWKGMVMSDWFGVKSTVPSVLNGNDLEMPGPPAWRGEKLLAAIKQGELKEEDLNESVQRVLSFVERVGKFEDPEERPETYLAKPEITELIRNVSADSIILVKNEQSLPLNKDALKSVAIIGPNAKTAVTMGGGSSKVQAPHEVTPYEGIAAALGEDVDIRHSVGAYTHKLIPQLDDRLQTPDGELGYIMDVYESKNFGETPTDSKVLNNTRVIIHDAGFKDVDFRSFSAKVRARYTAKHTGPHTFGIASVGLSKLYVDGKLVIDNWTSQVRGDIFFGFGSREEKAQYDMIEGQTYEILIDYMTGHELMAMLRFGLLEPLASDVVEQAVKVAEGTDVAVVVVGLNNEWETEGYDKTELELPGGQNELIEAVANVNKNTIVVVQCGSPVVMPWIDKVSGVIVAWYGGQETGHSIADVLFGKVNPSGRLTQTFPKRLEDNPAFDNYPGENGKVIYGEGLFIGYRYYQRRKVDVFLPFGFGLSYTTFDYGNIKLDNSELDPQAHITVSVDVTNTGSIAGKEVVQVYVHDNHPRLSRPLAELKGFSKVELAPGETRTVQITLDKHAVAFYDDKEAVWVAEAGEFELHIGSSSADIRGKVPFTVTKSLSWTF	19.8%	2.1%	2.4%	<3%
208 (protein, listed as Anaerolinea thermophila) MNVHNQDTIEQKISELLSQMTLSEKVSLLSGKDAWRTMPIPRLGIPSITMTDGPHGVRSSYPEAGRKAGPTTCFPTGVSMAATWNTALIEKVGMALAEETRAMDCDILLGPCVNIVRHPLAGRNFESYSEDPYLNGKMGVAWVKGLQSKKVGASLKHFAANNQEFERHRGSSELDERTLREIYLPHFEMVVKEAKPFTVMCAYNRINGVYASQNRHLLREILKEEWGFDGVVVSDWGANHTIFESVENGLDLEMPGPARYYGKLLEDAVHNWQIDEKVIDDAVRRILRILFRAGKFDDPATLPPGSVNTPEHQALALEVAEEAITLLKNEADLLPLDIEKIRTLAVIGPNAAEDRIGGGGSSYVDPPYRVSPLEALRARFGDKIQIEYEKGCDNYHQPPVLGADWLGVNGLKVDFFDNPALQGQPAGTISIPKAEMWMWANSLPASKITSPRFSLRASGSFTPLESGNFTFFLVNTSTCRVFINGNKVFENTSKPKEHRAESEVQFQTTLEEGKSYDLVIEYLKDNDEEFAFWKLACMRVFGPGEDNRIQKAAELAAKSDVALVFIGMPEGFESEGYDRPDMRLPGPQDELVRAVLKANPRTVVILNAGSPVEMPWAEDVPAILEAYYPGQEGGNAVAKILFGEINPSGKLTVTFPRRLEDTPAYINYPGDRKVYYGEGIFVGYRYYEKKKVSPLFPFGHGLSYTTFEYENLTLPSEVNIGESVKVQVTVKNTGKRAGKEVVQLYVGDPESSLVRPPKELKGFAKVELQPGESKTVSFELDERAFAFYDPYQSRWVVEPGEFQILVGSSSQDIRASAVLRMA	100.0%	94.0%	26.0%	<3%
